{"source": "the DeepSol protein solubility set"}
{"assay": "soluble on expression in E. coli; label from the status in PepcDB or PDB records"}
{"sequence": "MGSDKIHHHHHHMYKTYREEERKSVDRGIFKEVPLPCAFLDEVALDRNIQLIIELSGNKKIRIASKSLRSVPVMQKILAANDRFQGIMCFSPREVLFLIEQGFNDLLLGYPAYDDRALHEISLLTKQGLIITCMVDCEDHIVYLEKIAEKSKGCFRVCLDIDMSSRFLNFHFGVKRSPVRDVQGALKIVKRLKESSFLILDGVMGYEAQIAGVGDHIPNQRVKSKVISYLKKKSVLEVKARRGHIVKEIQNLGIELRFVNGGGTGSIKTTEQDHSVSEITIGSAFYAPKLFDYYKEVQLQPAVGFALPVVRKPAPTIYTCLGGGYIASGAIGKDKEPEIWRPNGAKLLALEGAGEVQTPIFYNGEERVEIGDSILFRHSKAGELCERFPFLYRVKEGEIVGEYSTYRGDGQCFL", "soluble on expression in E. coli": "not soluble"}
{"sequence": "MKKPPLNICILRLSAIGDVCHTLAVIQAIQRQYPDIKISWIIGKTEAHLMQGIHNVELIPYDKKSGWQGIITLWKQLRNKRFDFLLNMQTALRASMLSLGIKATHKIGFNKDRAREMQSLFVDSQVEMTASPHVLDGQMMFAKAIGVTDLTPRWHLPVSSADLAYSNQFLNPHTQNVVIAPCSSKTEKDWDIASNAEIAKWLTDQNINVIIVGSPTDYECATANQIKQLAPKVINTTGKTTLKQLAALIKQVDLVIAPDTGVAHIATTQHTRVIGLYAIHNPRRTAPYSDQANVISVYDQAILDYYGTSWDKLAWATKAKSKKGEKLMQRITVEEVKQKIVETLNLKL", "soluble on expression in E. coli": "not soluble"}
{"sequence": "MAHHHHHHSLCPCPHSQAQGETDGEAEWHNAALDFTHAMSYGDYLKLDKVLDAQFPLSPDHNEMLFIIQHQTSELWMKLMLHELRAAREHVKSGKLGPALKMLARVSRIFDQLVHAWAVLATMTPTEYNTIRPYLGQSSGFQSYQYREIEFILGNKNATLLKPHAHRAELLAALEQALHTPSLYDEAIRLMAAQGLPVSQERLARDAAAGTCYEASVEAAWRQVYQAPERYWDLYQLAEKLIDLEDSFRQWRFRHVTTVERIIGFKPGTGGTEGVGYLRSMLDTILFPELWRLRSNEG", "soluble on expression in E. coli": "soluble"}
{"sequence": "MKAPSYHVVRGDIATATEGVIINAANSKGQPGGGVCGALYKKFPESFDLQPIEVGKARLVKGAAKHIIHAVGPNFNKVSEVEGDKQLAEAYESIAKIVNDNNYKSVAIPLLSTGIFSGNKDRLTQSLNHLLTALDTTDADVAIYCRDKKWEMTLKEAVARREHHHHHH", "soluble on expression in E. coli": "soluble"}
{"sequence": "MYIPKHFESMELSRYKLSKKPPLGTLFSSKASRQGFFGWRTSSNKDDPDFGMCASHIPFVFVEFDNGEHKLIAHLARKNKHVEMLERVQKCLVVFQSVDSYISPAWFPMKKKTHKFVPTWDFAAVHVYGTPRIIRDDKDWLINMLSTLTDQEEEKRPEGENVRSKVERF", "soluble on expression in E. coli": "soluble"}
{"sequence": "MNILQEPIDFLKKEELKNIDLSQMSKKERYKIWKRIPKCELHCHLDLCFSADFFVSCIRKYNLQPNLSDEEVLDYYLFAKGGKSLGEFVEKAIKVADIFHDYEVIEDLAKHAVFNKYKEGVVLMEFRYSPTFVAFKYNLDIELIHQAIVKGIKEVVELLDHKIHVALMCIGDTGHEAANIKASADFCLKHKADFVGFDHGGHEVDLKEYKEIFDYVRESGVPLSVHAGEDVTLPNLNTLYSAIQVLKVERIGHGIRVAESQELIDMVKEKNILLEVCPISNVLLKNAKSMDTHPIRQLYDAGVKVSVNSDDPGMFLTNINDDYEELYTHLNFTLEDFMKMNEWALEKSFMDSNIKDKIKNLYFKGEFEAYV", "soluble on expression in E. coli": "soluble"}
{"sequence": "SSVNYAAGLSPYADKGICGLPETFDSPEELKTKVETLAQWIRESQYMVVHSGAGISTSTGIPDFRGPNGVWTMEERGETPHFNTTFEDARPSLTHMALLQMQRTGHLKYLISQNVDGLHVRSGFPRDRLSELHGNMFVEECEKCGKQYVRDTVVGVMGLKPTGRYCDVMRSRGLRSCRGKLISSILDWEDSLPDRDLNRADEASRRADLALTLGTSLQIKPSGDLPLLTKRTGGKLVIVNLQPTKHDKHAHLRIYGYVDDVMGQLMKLLGLDVPEWAGPTLCEDSGGDLDILPYGAWKKEVKIELKIEESNHTVSKKRKRKEQHAEEGYKNGVKVEEEMKEEGKESDSHVHTHT", "soluble on expression in E. coli": "soluble"}
{"sequence": "MAHHHHHHMKVSFTLFFIIYIILNCDVLKCEVESSDSTSFLNLISGQSSSNSDDTVSSSDSRGVVASVSGTVDSDVSRTDSTGNVNSKNSELSETRQNSVEQNNNSNSSDNSIKIKSAFLKENVGVKITGPCDEGFGLVMVPHIIINVDTRNTDIQLGKKSSEINYGIKLRKKGKDEYEEKVGIDLLKNVCETGKNFKFVAYIKGDELIIKWKVIEEGNIPIDIKKFKIKRMSPPITSIQVFSSMSDEKSFVLENKNYVVTNNMPEKCEALATNCFLSGNIDIEKCYQCSLLVENDSKSDVCYNFISRENKEKLNEERFKVKGSTEYEESVESELKGAIDLLISSFYKSDGENGENVLISFEDLNSTLEDDIINFCSLLKLVDLSG", "soluble on expression in E. coli": "not soluble"}
{"sequence": "MSLNLVSKLEETASEKPDSIACRFKDHMMTYQELNEYIQRFADGLQEAGMEKGDHLALLLGNSPDFIIAFFGALKAGIVVVPINPLYTPTEIGYMLTNGDVKAIVGVSQLLPLYESMHESLPKVELVILCQTGEAEPEAADPEVRMKMTTFAKILRPTSAAKQNQEPVPDDTAVILYTSGTTGKPKGAMLTHQNLYSNANDVAGYLGMDERDNVVCALPMFHVFCLTVCMNAPLMSGATVLIEPQFSPASVFKLVKQQQATIFAGVPTMYNYLFQHENGKKDDFSSIRLCISGGASMPVALLTAFEEKFGVTILEGYGLSEASPVTCFNPFDRGRKPGSIGTSILHVENKVVDPLGRELPAHQVGELIVKGPNVMKGYYKMPMETEHALKDGWLYTGDLARRDEDGYFYIVDRKKDMIIVGGYNVYPREVEEVLYSHPDVKEAVVIGVPDPQSGEAVKGYVVPKRSGVTEEDIMQHCEKHLAKYKRPAAITFLDDIPKNATGKMLRRALRDILPQGHHHHHH", "soluble on expression in E. coli": "soluble"}
{"sequence": "MLLQTLEERLATLRQRCAPLAQHATLSARFDRHLFRTRSTLLQGYLEEAGANLVALRQAVKHEQLPQVAWLAEHLASQLEAISRETAAWSLRQWDAAAPGLGRWQRRRIQHQEFERRLLAMTQERKIRLAQATGLVEQQTLQKEVEIYEGRLARCRHALEKIENVLARLTR", "soluble on expression in E. coli": "not soluble"}
{"sequence": "MGSDKIHHHHHHMDTRTLIYLHQYFSIPTVSGGTRSWEFSTRLVQDKWQVCMFCGDSEIHGIPAVNILKLFNTKNVSFKLNVIPLKYSNYMSFSRRIFAFLSFAVRSSLQVLREEKADLTFATSTPLTIAIPALLRKWLHGTPYIFEVRDLWPEMPIAMKAVRSPLAIFLARQLELIAYQNASHIVALSPGMKEGIVKQGISPEKVEVIPNACDNARFNISETIGLEFLRQHPELSGGPLIVYTGTFGHINGVNYLAYLASHMRNIIPEAKFLVVGSGVCESEVREASCQLGILEKNFWMWPPIPKAEMPALLSACTVATSLFKPIPEMEHNSANKFFDALAAGRPVVINYGGWQKEILEQSGAGISISSNDPKVAAIQLAKFLNSSECLQSAQAAARKLADTVFDRDILYKKLANVFQKVLNETHSDI", "soluble on expression in E. coli": "not soluble"}
{"sequence": "MKDLIKVQQKLIPDLIDKMYRRFYILSTISQNQPVGRRSLSEHMDMTERVLRSETDMLKKQELIRVKPTGMEITNEGTEVLAQLGEYFNVYSDDHKLASAIKDKFHIKDVHVIPGDSDSNRTVKREMGQQAGQLLEGILYEDAIVSVTGGSTMACVSESIHLLPFNVFFVPARGGLGENVVYQANTIASSMAQQAGGYYTTLYVPDNVSESTYDTLMLEPSVMHTLDKIKQANITIHGIGDALKMAHRRQSSQNVIDNLQHHQAVGEAFGYYFDAQGQIVHKVKTIGLQLEDLENKDFIFAVAGGQSKGEAIKAYLSIAPENTVLITDEAAAKVILQ", "soluble on expression in E. coli": "not soluble"}
{"sequence": "MLSSSGHAIRRGITTSAALSNKHAFIVGAARTPIGSFRSSLSSVTAPELASVAIKAALERGAVKPSSIQEVFLGQVCQANAGQAPARQAALGAGLDLSVAVTTVNKVCSSGLKAIILAAQQIQTGHQDFAIGGGMESMSQVPFYVQRGEIPYGGFQVIDGIVKDGLTDAYDKVHMGNCGEKTSKEMGITRKDQDEYAINSYKKSAKAWENGNIGPEVVPVNVKSKKGVTIVDKDEEFTKVNFDKFTSLRTVFQKDGTITAANASTLNDGAAAVIVASQEAVSEQSLKPLARILAYGDAATHPLDFAVAPTLMFPKILERAGVKQSDVAQWEVNEAFSCVPLAFIKKLGVDPSLVNPHGGAVSIGHPIGMSGARLITHLVHTLKSGQIGVAAICNGGGGSSGMVIQKL", "soluble on expression in E. coli": "not soluble"}
{"sequence": "MSLRTSGSRLNSVRCASALTISGWKNNCVIEFDASGRIQSLREDSQSDVDLDLKGTVIAGIPNLHSHAHQKVITGLTEHRIAGQDDFWGWRELMYRANARLDPEQLQTIARYLYIDMLQKGYTSVAEFHYLHHQPDGTPYADLSEMSAQLLEAASEAGIAITLLPVLYCRGGFKDEPVQDSQHRFFNNPERYLALLESCHSLCANNPDRSLGFAAHSLRAVSPSAMSSTIEAAGPMLEGAPIHIHVAEQMREVNDCIEINGARPVAWLYDQCDVNDRWCLVHATHVDPQEQALLAQSGAIVGLCPTTEANLGDGIFPAAELMTNNGFLGVGSDSQVCTSPAEELRLLEYSQRFSLQRRTVLVPDEAGSNGRALTTAAIIGGNRARGEPLAGLQPGARGDLVEIGSDHVEFAGRSPDQVLDTWIFSGPDNPVQNVVAGGRHVVHDGVHPAMESASRAYREMVNALDLSEGHHHHHH", "soluble on expression in E. coli": "soluble"}
{"sequence": "MAHHHHHHMLRRVVAPAPVSATAACAGQARSIYEYKFGQTPLTQPFGGTSRLPPGPSSNPAPVAPGKVEITKLHNGARVITHNLGGPSVSVGAYILAGPAYDPPSAPGAGAMMHLALTTSNYNNSLFQLDRNIRSVGAAQSHFEKHKHYIGIRIDARADKWKSAASTSSFSQRRQLQNQKQAEQQFSLNLVQDNIFTCIAAPRFHEPDVERFRDTIDNQVEELRWQCPAEYAKQMLETVAFYREPLGNPRFVPAMSNSIISSSVLLEQYSRYIVPSRVVVAGVNVDHAALIAEYENTPFPHSASAPHHARAQPCVVNWKDEASQYTGGERHDHEDRPKVMGTKPDMDPESIIAVGWLAYGKDRKMVKDHAASMVVGALMDIGFSGCMRCGAPDEMHEHTGLRAFYNPYQTAGLIGFTAKAEPQAAVRMVTDAVKMVRASQASVADSMLSVAKKMAKTQFMVQTVDTIRDYCDYLGTCLAVDSDSTLATSVEEVVDAINSVNAADVKRVYEKMFSNKTSLYGHGEMLGFPSMRQMGL", "soluble on expression in E. coli": "not soluble"}
{"sequence": "VHVEDALTYLDQVKIRFGSDPATYNGFLEIMKEFKSQSIDTPGVIRRVSQLFHEHPDLIVGFNAFLP", "soluble on expression in E. coli": "soluble"}
{"sequence": "MTLYIIANPHAGNKNASTIVGKIQELYHTEDISVFYTEQKDDEKKQVINILRSFKESDHLMIIGGDGTLSKVMTYLPQHIPCTYYPVGSGNDFARALKIPNLKETLTAIQTERLKEINCFIYDKGLILNSLDLGFAAYVVWKASNSKIKNILNRYRLGKITYIVIAIKSLLHSSKVQVLVEGETGQQIKLNDLYFFALANNTYFGGGITIWPKASALTAELDMVYAKGHTFLKRLSILLSLVFKRHTTSKSIKHQTFKAMTVYFPKNSLIEIDGEIVELDQISLKCQKRYLYM", "soluble on expression in E. coli": "not soluble"}
{"sequence": "MGSDKIHHHHHHEQEDKVSGEKTLAVVSASSDDRPSTRGIINDNTYALGVFRTTANTYAPLYNVKHIYSGGEWGADDVIKVDYRNASFFAYYPYHTATGNYAGLAGGTTLTLQAQLFNAGEDICYGAGEASGGGPVSVYNPFVEFLNMKHAYARLRLTLTRGEKFDKTKKCNIQNITFKSNNANFYLTRSLDIASTAGATGGSAVAAGYVHNPNVNIATGKSVTYEYMFPPQPLDGSKLTILVTVDGVTRSCDISTLGSSLDSGKYYGVSLTFTDVGIILSSAVVTVNNFGGQGNTQVDTEL", "soluble on expression in E. coli": "not soluble"}
